Common to all, as to assay type: cell-based, E. coli
Data set [1] deals with glycolate production from formaldehyde. Put plainly: Resting-cell bioconversion pathway 1 (HACS with LmACR-EcAldA), formaldehyde as sole carbon source. The following applies: for glycolate productivity (glycolyl-CoA synthase activity) compared with RuHACL: 5 mM formaldehyde as sole carbon source. An excerpt: (§1) We used glycolic acid (glycolate) productivity per cell density (uM glycolate/OD600) as indicator of HACS activity. Two different enzymatic routes for glycolate synthesis are explored. The first pathway (pathway 1) is similar to the pathway used for initial screening in Example 2 with addition of an extra gene, aldehyde dehydrogenase aldA from Escherichia coli (EcAldA) overexpressed to drive flux from glycolaldehyde to glycolate (FIG. 21A). In addition, HACS and LmACR-AldA are controlled under independent inducible promoters to investigate the impact of varying relative gene expressions (FIG. 21B). The second pathway (pathway 2) involves independent fluxes of formaldehyde and formyl-CoA allowing assessment of the enzyme activity with response to changing formaldehyde concentration only, while maintaining constant formyl-CoA flux. Formyl-CoA is generated by formic acid (formate) catalyzed by the acyl-CoA transferase from Clostridium aminobutyricum (CaAbfT) (FIG. 22A).
(§2) For the in vivo prototyping, we engineered vectors to independently control expression of HACS variants and the LmACR-EcAldA (pathway 1, FIG. 21A) or CaAbfT (pathway 2, FIG. 22A), with HACS under control of the IPTG-inducible T7 promoter in pCDFDuet-1 and LmACR-EcAldA or CaAbfT under control of a cumate-inducible T5 promoter in pETDuet-1 (FIG. 21B). As a host for these vectors, we used an engineered strain of E. coli based on MG1655(DE3) with knockouts for formaldehyde (ΔfrmA) and formate (ΔfdhF ΔfdnG ΔfdoG) oxidation as well as for glycolate utilization (ΔglcD)), which we expected could compete or interfere with the analysis of our pathway. […]
(§3) Cells from the above pre-cultures were then centrifuged (4000 rpm, 22° C.), washed with the above minimal media without any carbon source, and resuspended with 1 mL of above minimal media containing indicated amounts of carbon source. […] The cells were harvested after 3 hours for LmACR-EcAldA co-expression and 1 hour for CaAbfT co-expression by centrifugation and the supernatant analyzed by HPLC or GC-MS as described in EXAMPLE 2. […]

Data set [2] deals with glycolate production from formaldehyde and formate. Briefly: Resting-cell bioconversion pathway 2 (HACS with CaAbfT), co-feeding formaldehyde and formate.
Source text: as §1, §2, §3

The subject of data set [3] is 2,4-dihydroxybutyric acid production from 3-hydroxypropionaldehyde and formate. Put plainly: HACS screening with 3-hydroxypropionaldehyde and formate (DHB productivity). Particulars: 5 mM 3HP and 20 mM formate, first round. An excerpt:
We used 2-hydroxyacid productivity per cell density (μM/OD600) as indicator of HACS activity. 2-Hydroxyacids can be produced co-feeding various aldehydes and formic acid (formate) as carbon source in the presence of active HACS variant and acyl-CoA transferase from Clostridium aminobutyricum (CaAbfT). CaAbfT is shown to be capable of catalyzing reaction from formate to formyl-CoA (Nattermann, M., et al. ACS Catal 11 (9): 5396-5404 (2021)). HACS condenses aldehyde and formyl-CoA to form 2-hydroxyacyl-CoA, which can then be hydrolyzed to 2-hydroxyacid via native thioesterase activities (FIG. 31A).
For the in vivo prototyping, we engineered vectors to independently control expression of HACS variants and CaAbfT, with HACS under control of the IPTG-inducible T7 promoter in pCDFDuet-1 and CaAbfT under control of a cumate-inducible T5 promoter in pETDuet-1 (FIG. 31B) and transformed them into the engineered strain of E. coli described in EXAMPLE 3.
The HACS variants were screened for 2-hydroxyacid production using the high throughput screening platform as described in EXAMPLE 3 by co-feeding 5 mM aldehyde and 20 mM formate. The cells were harvested after 1 hour by centrifugation and the supernatant analyzed by HPLC (as described in EXAMPLE 2) or SoGO method.
We used 2,4-dihydroxybutyric acid (DHB) productivity per cell density (uM DHB/OD600) as indicator of HACS activity. […]

Data set [4] has as its system 2HIB production from acetone and formate. Put plainly: HACS screening with acetone and formate (2HIB production). The following applies: 100 mM acetone and 20 mM formate, CaAbfT. The procedure:
The HACS variants are tested using the high throughput screening platform as described in EXAMPLE 3 pathway 2 by co-feeding 100 mM acetone and 20 mM formate with formate activation enzyme CaAbfT (FIG. 37A).

Where [5] appears, read: 0.5 mM formaldehyde and 20 mM formate co-fed.

The record followed here is patent US20260078416A1, “ORTHOGONAL METABOLIC FRAMEWORK FOR ONE-CARBON UTILIZATION” (Mojia Biotech Pte. Ltd., priority 2021, published 2026).

B1: JGI15: HACS variant; GenBank HAK63664.1 (protein)
chain: MAKSEGKVNGATLMARALQQQGVQYMFGIVGFPVIPIAIAAQREGITYIGMRNEQSASYAAQAASYLTGRPQACLVVSGPGVVHALAGLANAQVNCWPMLLIGGASAIEQNGMGAFQEERQVLLASPLCKYAHQVERPERIPYYVEQAVRSALFGRPGAAYLDMPDDVILGEVEEAAVRPAATVGEPPRSLAPQENIEAALDALQSAKRPLVIVGKGMAWSRAENEVRQFIERTRLPFLATPMGKGVMPDDHPLSVGGARSHALQEADLVFLLGARFNWILHFGLPPRYSKDVRVIQLDLSAEEIGNNRQAEVALVGDGKAIVGQLNQALSSRQWFYPAETPWREAIAAKIAGNQAAVAPMIADNTSPMNYYRVYRDIAARLPRNAIIVGEGANTMDIGRTQMPNFEPRSRLDAGSYGTMGIGLGFAVAAAAVHPGRPVIAVQGDSAFGFSGMEFETAARYGMPIKVIILNNGGIGMGSPAPRDGQPGMPHALSHDARYERIAEAFGGAGFYVTDSAELGPALDAAMAFKGPAIVNIKIAATADRKPQQFNWHG
Regarding B1, the “glycolate productivity (glycolyl-CoA synthase activity) compared with RuHACL” value in data set [1] is “exceeding the starting reference enzyme, RuHACL”. Besides, the “glycolate productivity relative to RuHACL” value in data set [1] (5 mM formaldehyde sole carbon source, optimal inducer concentrations, 3 hours) amounted to 2.5 fold; in data set [2] (setting [5]), 7 fold. Also, the “glycolate productivity relative to JGI20” value in data set [2] (setting [5]) came out at 1.5 fold. In addition, the DHB productivity result in data set [3] was “decent DHB productivity”. The figures for the “performance in 2HIB production” value in data set [4] and in data set [4] (listed as JG115) were “best performance” and “better performance than other HACLs”, respectively.

B2: JGI20: HACS variant; GenBank PWB41796.1 (protein)
chain: MGQITGAQIVARALKQQGVEYMFGIVGIPVIPIAMFAQREGIKFYGFRNEQSASYAAAAVGYLTGRPGVCLGVSGPGMIHGVAGMANAWSNCWPMILIGGANDSYQNGQGAFQEAPQIEAARPFAKYCARPDSLARLPFYVEQAVRTSIYGRPGAVYLDLPGDIITGAMEEEDVHFPPRCPDAPRMMAPQESIDAAMAALKSAERPLVIVGKGAAYSRAENEVREFLETTQLPYLASPMGKGVMPDDHPLSIAPARSAALLGADVILLMGARLNWMMHFGHPPRFDPKVRVIQMDISAEEIGTNVPTEVALVGDAKAITTQLNASLKQQPWQYPSETTWWTGLRKKIDENGATVAEMMADESVPMSYYRVYREIRDLIPNDAIIQNEGASTMDIGRTLMPNFLPRHRLDAGSFGTMGVGLGQAIAAAAVHPDKHVFCIEGDSAFGFSGMEVETAARYGMKNITFIIINNNGIGGGPDTLDPTRVPPSAYTPNAHYEKMAEIYGGKGYFVTEPSQLRPALEEAIKADKPAIVNIMISATSQRKPQQFAWLTR
As for B2, the “glycolate productivity (glycolyl-CoA synthase activity) compared with RuHACL” value in data set [1] was “exceeding the starting reference enzyme, RuHACL”. In addition, the “glycolate productivity under high formaldehyde concentration” value in data set [2] (5 mM formaldehyde and 20 mM formate co-fed) is “better glycolate productivity”. Besides, the DHB productivity entry in data set [3] is given as “decent DHB productivity”. In data set [4], the “performance in 2HIB production” value was “better performance than other HACLs”.
